Laboratory results reported in the supplement of paper PMC9233669.
Variants at the floor of the assay were thinned out.

Legend:
[1] = tested on: biotinyl-Phe-oxazolone; experiment: self-aminoacylation, catalytic enhancement (BFO) (fold over background); higher = more active; k-Seq, kA / k0A0; sequences stand for … in GGGAAUGGAUCCACAUCUACGAAUUC…UUCACUGCAGACUUGACGAAGCUG
Outline: (§1)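 Mutagenized RNA pools (0.43 μM; 21-nt variable region) were treated with 2–1250 μM of each biotinyl-aminoacyl-oxazolone. Conditions were 50 μL HEPES/NaCl/KCl/MgCl2/CaCl2 buffer, 5% acetonitrile, pH 6.9–7.0, room temperature, 90 minutes. Catalytic enhancement, the median kA relative to the uncatalyzed rate, was derived from streptavidin capture, qPCR and Illumina sequencing.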

[2] = tested on: biotinyl-Leu-oxazolone; experiment: self-aminoacylation, catalytic enhancement (BLO) (fold over background); higher = more active; k-Seq, kA / k0A0; sequences stand for … in GGGAAUGGAUCCACAUCUACGAAUUC…UUCACUGCAGACUUGACGAAGCUG
Outline: as §1

[3] = tested on: biotinyl-Val-oxazolone; experiment: self-aminoacylation, catalytic enhancement (BVO) (fold over background); higher = more active; k-Seq, kA / k0A0; sequences stand for … in GGGAAUGGAUCCACAUCUACGAAUUC…UUCACUGCAGACUUGACGAAGCUG
Outline: as §1

[4] = tested on: biotinyl-Trp-oxazolone; experiment: self-aminoacylation, catalytic enhancement (BWO) (fold over background); higher = more active; k-Seq, kA / k0A0; sequences stand for … in GGGAAUGGAUCCACAUCUACGAAUUC…UUCACUGCAGACUUGACGAAGCUG
Outline: as §1

[5] = tested on: biotinyl-Met-oxazolone; experiment: self-aminoacylation, catalytic enhancement (BMO) (fold over background); higher = more active; k-Seq, kA / k0A0; sequences stand for … in GGGAAUGGAUCCACAUCUACGAAUUC…UUCACUGCAGACUUGACGAAGCUG
Outline: as §1

[6] = tested on: biotinyl-Ile-oxazolone; experiment: self-aminoacylation, catalytic enhancement (BIO) (fold over background); higher = more active; k-Seq, kA / k0A0; sequences stand for … in GGGAAUGGAUCCACAUCUACGAAUUC…UUCACUGCAGACUUGACGAAGCUG
Outline: as §1

Sequence | self-aminoacylation [1] | self-aminoacylation [2] | self-aminoacylation [3] | self-aminoacylation [4] | self-aminoacylation [5] | self-aminoacylation [6]
AUGCACCUAGGUCAUCGUGUG [Fam2.2 aminoacylation ribozyme variant] | 4.56 | 0.934 | 1.04 | 0.926 | 1.18 | 1.04
AUGCACCUAGGUCCUCGGGUG [Fam2.2 aminoacylation ribozyme variant] | 27.2 | 5.43 | 3.19 | 5.64 | 3.7 | 3.44
AUGCACCUAGGUCGUCGGGUG [Fam2.2 aminoacylation ribozyme variant] | 8.26 | 2.42 | 1.8 | 2.39 | 1.75 | 1.68
AUGCACCUAUGUCAUCGGGUG [Fam2.2 aminoacylation ribozyme variant] | 26.4 | 5.19 | 2.48 | 4.24 | 4.11 | 2.81
AUGCACCUCGGUCAUCGGGUG [Fam2.2 aminoacylation ribozyme variant] | 32.6 | 6.47 | 3.86 | 6.81 | 5.38 | 4.1
AUGCACCUGGGUCAUCGGGUG [Fam2.2 aminoacylation ribozyme variant] | 21.2 | 3.18 | 3.8 | 3.63 | 4.33 | 3.37
AUGCAUCUAGGUCAUCGGGUG [Fam2.2 aminoacylation ribozyme variant] | 57 | 9.38 | 5.41 | 9.62 | 8.33 | 5.83
AUGCCCCUGGUCAUCGAGUGA [Fam2.1 aminoacylation ribozyme variant] | 38.4 | 10.2 | 5.59 | 10 | 9.73 | 5.14
AUGCUCCUAGGUCAUCGGGUG [Fam2.2 aminoacylation ribozyme variant] | 37.6 | 8.92 | 4.4 | 7.13 | 7.47 | 5.26
AUGCUUCAAACAAUCGGUCUG [Fam1A.1 aminoacylation ribozyme variant] | 129 | 3.36 | 1.99 | 50.6 | 2.1 | 2.25
AUGGACCUAGGUCAUCGGGUG [Fam2.2 aminoacylation ribozyme variant] | 22 | 4.55 | 3.04 | 4.36 | 3.77 | 3.46
AUGGCCCUGGUCAUCGAGUGA [Fam2.1 aminoacylation ribozyme variant] | 729 | 84.6 | 29.1 | 76.5 | 82.9 | 27.1
AUGUACCUAGGUCAUCGGGUG [Fam2.2 aminoacylation ribozyme variant] | 34 | 5.37 | 3.08 | 5.8 | 5.49 | 3.62
AUGUCCCUGGUCAUCGAGUGA [Fam2.1 aminoacylation ribozyme variant] | 246 | 40.9 | 17.2 | 41.4 | 44.2 | 15.1
AUGUCUGCUAAUAGUCGCAAG [Fam3.1 aminoacylation ribozyme variant] | 35.5 | 1.74 | 1.56 | 9.53 | 2.25 | 1.91
AUGUUAGCUAAUAGUCGCAAG [Fam3.1 aminoacylation ribozyme variant] | 1.84 | 1.39 | 1.29 | 0.993 | 1.45 | 1.57
AUGUUCGCUAAUAGUCGCAAG [Fam3.1 aminoacylation ribozyme variant] | 3.79 | 1.14 | 1.55 | 1.67 | 1.65 | 1.58
AUGUUUACUAAUAGUCGCAAG [Fam3.1 aminoacylation ribozyme variant] | 1.92 | 1.52 | 1.7 | 2.07 | 1.61 | 1.67
AUGUUUGCCAAUAGUCGCAAG [Fam3.1 aminoacylation ribozyme variant] | 1.82 | 1.14 | 1.33 | 1.15 | 1.64 | 1.53
AUGUUUGCUAAGAGUCGCAAG [Fam3.1 aminoacylation ribozyme variant] | 2.16 | 1.39 | 1.28 | 1.68 | 1.35 | 1.35
AUGUUUGCUAAUAGUCGCAAC [Fam3.1 aminoacylation ribozyme variant] | 1.82 | 1.04 | 1.05 | 1.08 | 1.05 | 1.15
AUGUUUGCUAAUAGUCGCGAG [Fam3.1 aminoacylation ribozyme variant] | 3.75 | 1.48 | 1.65 | 2.18 | 1.57 | 1.65
